Results taken from article PMC6520838, “Structural Insights to the Heterotetrameric Interaction between the Vibrio parahaemolyticus PirA^vp and PirB^vp Toxins and Activation of the Cry-Like Pore-Forming Domain” (Toxins, 2019).

Legend:
[1] = target: T1, N-terminal tagged His10-PirA^vp (Vibrio parahaemolyticus); assay: SDS-PAGE densitometry of the complex collected from gel filtration; complex fractions eluted at 12.5 to 13 mL, serially diluted, SDS-PAGE; bands quantified with Image J against standard curves of PirA^vp and PirB^vp; conditions: both partners purified
T1 chain: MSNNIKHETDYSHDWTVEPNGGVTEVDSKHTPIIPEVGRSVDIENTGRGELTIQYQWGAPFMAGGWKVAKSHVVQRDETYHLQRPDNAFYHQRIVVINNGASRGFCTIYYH

[2] = target: T1, N-terminal tagged His10-PirA^vp; assay: ITC; iTC200; 1100 uM PirB^vp in the syringe injected into 110 uM PirA^vp in the cell, 19 injections of 2 uL, 25 °C; 30 mM Tris pH 8.0, 100 mM NaCl, 5% glycerol, 1 mM DTT; triplicate; conditions: both partners purified

B1: C-terminal tagged His6-PirB^vp (natural protein)
chain: MTNEYVVTMSSLTEFNPNNARKSYLFDNYEVDPNYAFKAMVSFGLSNIPYAGGFLSTLWNIFWPNTPNEPDIENIWEQLRDRIQDLVDESIIDAINGILDSKIKETRDKIQDINETIENFGYAAAKDDYIGLVTHYLIGLEENFKRELDGDEWLGYAILPLLATTVSLQITYMACGLDYKDEFGFTDSDVHKLTRNIDKLYDDVSSYITELAAWADNDSYNNANQDNVYDEVMGARSWCTVHGFEHMLIWQKIKELKKVDVFVHSNLISYSPAVGFPSGNFNYIATGTEDEIPQPLKPNMFGERRNRIVKIESWNSIEIHYYNRVGRLKLTYENGEVVELGKAHKYDEHYQSIELNGAYIKYVDVIANGPEAIDRIVFHFSDDRTFVVGENSGKPSVRLQLEGHFICGMLADQEGSDKVAAFSVAYELFHPDEFGTEK
stoichiometry N [1]: 1.1 PirA^vp per PirB^vp
Kd [2]: 7.33 ± 1.2 µM
dH [2]: -25.7 ± 1.42 kcal/mol
stoichiometry N [2]: 0.74 ± 0.01
